Assay results published in article PMC13438699 (Nature Communications, 2026).

B1: CR9114 Fab (Fab, V domains shown)
VH: QVQLVQSGAEVKKPGSSVKVSCKSSGGTSNNYAISWVRQAPGQGLDWMGGISPIFGSTAYAQKFQGRVTISADIFSNTAYMELNSLTSEDTAVYFCARHGNYYYYSGMDVWGQGTTVTVSS
VL: QSALTQPPAVSGTPGQRVTISCSGSDSNIGRRSVNWYQQFPGTAPKLLIYSNDQRPSVVPDRFSGSKSGTSASLAISGLQSEDEAEYYCAAWDDSLKGAVFGGGTQLTVL
notes: source: Expi293F, transient co-transfection, purified (CaptureSelect CH1-XL)
B2: 047-09 4F04 Fab (Fab, V domains shown)
VH: EVQLVESGGGLVQPGGSLRLSCAASGFTFNTYNMNWVRQAPGKGLEWVSYISSSSLSRYYADSVKGRFTISRDNAKNSLFLQMNSLRAEDTAVYYCARGAQAGYSSFFPPTTFWGQGTLVTVSS
VL: EIVMTQSPATLSVSPGEGVTLSCRASQSVSSNLAWYQQKPGQAPRLLIYGASTRATGIPARFSGSGSGTEFTLTISSLQSEDFAVYYCQQYYNWPPLTFGGGTKVEIK
B3: HB315 (IgG format) (antibody, V domains shown)
VH: EVQLLESGGGLAQPGGSLRLSCTASGFTFSNFAMNWVRQAPGKGLEWVSFINSGSGSTYYADSVKGRFTISRDNSENTLFLQMNSLRAEDTAVYYCAKDLGRAIFGLVIPEGAFDIWGQGTMVTVSS
VL: EIVMTQSPSSLSASVGDRVTITCRASQSINNHLNWYQQKPGKAPKLLIYAASSLQSGVPSRFSGSGSGTDFTLTISSLQPADFATYHCQQSYGVPLTFGQGTKVEIK
B4: HB315 Fab (Fab, V domains shown)
VH: EVQLLESGGGLAQPGGSLRLSCTASGFTFSNFAMNWVRQAPGKGLEWVSFINSGSGSTYYADSVKGRFTISRDNSENTLFLQMNSLRAEDTAVYYCAKDLGRAIFGLVIPEGAFDIWGQGTMVTVSS
VL: EIVMTQSPSSLSASVGDRVTITCRASQSINNHLNWYQQKPGKAPKLLIYAASSLQSGVPSRFSGSGSGTDFTLTISSLQPADFATYHCQQSYGVPLTFGQGTKVEIK
B5: HB31 wild type (WT) Fab (Fab, V domains shown)
VH: EVQLLESGGGLVQPGGSLRLSCTVSGFTSSNYDMSWVRQAPGKGLEWVSGISGTGRDTYYADSVKGRFTISRDNSKNTLSLQMNSLRADDTAVYFCARDRPVLRYFDWQPYGLDVWGKGTTVTVSS
VL: QSALTQPPSASGSPGQSVTISCTGTSSDVGGYNYVSWYQQYPSKAPKLMIYEVSKRPSGVPDRFSGSKSGNTASLTVSGLQAEDEADYYCNSYAGSNLYVFGTGTKVTVL
notes: also called HB31 WT Fab; HB31 Fab; source: Expi293F, transiently co-transfected, purified (CaptureSelect CH1-XL)
B6: HB31 wild type (WT) IgG (antibody, V domains shown)
VH: EVQLLESGGGLVQPGGSLRLSCTVSGFTSSNYDMSWVRQAPGKGLEWVSGISGTGRDTYYADSVKGRFTISRDNSKNTLSLQMNSLRADDTAVYFCARDRPVLRYFDWQPYGLDVWGKGTTVTVSS
VL: QSALTQPPSASGSPGQSVTISCTGTSSDVGGYNYVSWYQQYPSKAPKLMIYEVSKRPSGVPDRFSGSKSGNTASLTVSGLQAEDEADYYCNSYAGSNLYVFGTGTKVTVL
notes: copies: 2 + 2
B7: HB34 (IgG format) (antibody, V domains shown)
VH: EVQLLESGGGLVQPGGSLRLSCTVSGFTSSNYDMSWVRQAPGKGLEWVSGISGTGRDTYYADSVKGRFTISRDNSKNTLSLQMNSLRADDTAVYFCARDRPVLRYFDWQPYGLDVWGKGTTVTVSS
VL: QSALTQPASVSGSPGQSITISCTGTSSDVGSYNLVSWYQQHPGKAPKLMIYEGSQRPSGVSNRFSGSKSGNTASLTISGLQAEDEADYYCCSYASSTSYVFGTGTKVTVL
B8: HB34 Fab (Fab, V domains shown)
VH: EVQLLESGGGLVQPGGSLRLSCTVSGFTSSNYDMSWVRQAPGKGLEWVSGISGTGRDTYYADSVKGRFTISRDNSKNTLSLQMNSLRADDTAVYFCARDRPVLRYFDWQPYGLDVWGKGTTVTVSS
VL: QSALTQPASVSGSPGQSITISCTGTSSDVGSYNLVSWYQQHPGKAPKLMIYEGSQRPSGVSNRFSGSKSGNTASLTISGLQAEDEADYYCCSYASSTSYVFGTGTKVTVL
B9: HB31 (IgG format) (antibody, V domains shown)
VH: EVQLLESGGGLVQPGGSLRLSCTVSGFTSSNYDMSWVRQAPGKGLEWVSGISGTGRDTYYADSVKGRFTISRDNSKNTLSLQMNSLRADDTAVYFCARDRPVLRYFDWQPYGLDVWGKGTTVTVSS
VL: QSALTQPPSASGSPGQSVTISCTGTSSDVGGYNYVSWYQQYPSKAPKLMIYEVSKRPSGVPDRFSGSKSGNTASLTVSGLQAEDEADYYCNSYAGSNLYVFGTGTKVTVL
notes: also called HB31 wild type; WT
B10: HB31 Fab (Fab, V domains shown)
VH: EVQLLESGGGLVQPGGSLRLSCTVSGFTSSNYDMSWVRQAPGKGLEWVSGISGTGRDTYYADSVKGRFTISRDNSKNTLSLQMNSLRADDTAVYFCARDRPVLRYFDWQPYGLDVWGKGTTVTVSS
VL: QSALTQPPSASGSPGQSVTISCTGTSSDVGGYNYVSWYQQYPSKAPKLMIYEVSKRPSGVPDRFSGSKSGNTASLTVSGLQAEDEADYYCNSYAGSNLYVFGTGTKVTVL

Key:
[1] = biological target: T1, A/Michigan/45/2015 (H1N1) HA (Influenza A virus A/Michigan/45/2015 …, UniProt A0A1J0CXU0, strain); experiment: BLI; settings: both partners purified
A/USSR/90/1977 (H1N1) HA = biological target: T2, A/USSR/90/1977 (H1N1) HA (Influenza A virus A/USSR/90/1977 (H1N1), UniProt P03453, strain); experiment: ELISA; settings: one partner purified
T2 construct: source: bought: Sino Biological

[2] = biological target: T3, A/Taiwan/01/1986 (H1N1) HA (Influenza A virus A/Taiwan/1/1986 (H1N1), UniProt F5CU03, strain); experiment: ELISA; settings: one partner purified
T3 construct: source: bought: Sino Biological

[3] = biological target: A/Beijing/262/1995 (H1N1) HA (Influenza A virus A/Beijing/262/1995 …, UniProt B4UPF7, strain); experiment: ELISA; settings: one partner purified
[4] = biological target: T4, A/Solomon Islands/3/2006 (H1N1) HA (influenza A virus A/Solomon …); experiment: ELISA; settings: one partner purified
[5] = biological target: T5, A/California/07/2009 (H1N1) HA (Influenza A virus A/California/07/2009 …, UniProt C3W5X2, strain); experiment: ELISA; settings: one partner purified
T5 construct: source: bought: BEI Resources (NR-42635)

[6] = biological target: T1, A/Michigan/45/2015 (H1N1) HA; experiment: ELISA; settings: one partner purified
[7] = biological target: T6, A/Japan/305/1957 (H2N2) HA (Influenza A virus A/Japan/305/1957 …, UniProt Q0A2X3, strain); experiment: ELISA; settings: one partner purified
T6 construct: source: Sf9, baculovirus, purified from supernatant (Ni Sepharose Excel, SEC)

[8] = biological target: T4, A/Solomon Islands/3/2006 (H1N1) HA; experiment: cryo-EM structure; settings: both partners purified
[9] = biological target: A/Texas/37/2024 (H5N1) HA (Influenza A virus A/Texas/37/2024 (H5N1), strain); experiment: BLI; settings: both partners purified

Binder | binding result [1] | binding result (A/USSR/90/1977 (H1N1) HA) | binding result [2] | binding result [4] | binding result [5] | binding result [8] | further results
B1 | binds |  |  |  |  |  | 
B2 | binds |  |  |  |  |  | 
B3 |  | binds | binds | binds | binds |  | binding result [3]: binds; binding result [6]: binds; fold stronger binding activity than HB31 and HB34 (ELISA) [7]: ≥ 4 fold
B4 | binds |  |  |  |  | binds | 
B5 |  |  |  |  |  |  | Kd [9]: 4.5 nM
B6 |  |  |  |  |  |  | Kd [9]: 1.6 nM
B7 |  | binds | binds | binds | binds |  | binding result [3]: binds; binding result [6]: binds
B8 | binds |  |  |  |  | binds | 
B9 |  | binds | binds | binds | binds |  | 
B10 | binds |  |  |  |  | binds | 
